Where two headings read alike, the source gives them in different places.
Columns and labels:
mouse macrophages = test: TNF-a induction in mouse macrophages; assay type: cell-based
Procedure: TNF-a Induction: To examine mRNA levels macrophages were derived from mouse bone marrow using M-CSF. Macrophages were then stimulated by LPS, E. coli produced recombinant HMGB1 or HMGB1 purified from bovine thymus for indicated length of time and mRNA is measured by Taqman. To examine protein levels thioglycant activated mouse peritoneal macrophages were stimulated with 10 μg/mL of HMGB1 purified from bovine thymus or recombinant HMGB1 generated from E. coli for 24 hr. Cytokines in the supernatant were measured by ELISA.

[1] = system: CpG2216+thymus HMG1 induced IFN-a release (TLR9 signaling); test: Inhibition of HMG1 mediated enhancement of TLR9 signaling, CpG2216 + thymus HMG1 in bone marrow cells; assay type: cell-based; conditions: mouse bone marrow cells
Procedure: HMGB1+TLR Ligand: Freshly isolated bone marrow cells were stimulated with TLR ligands (TLR3:PolyIC@5 μg/mL; TLR4:LPS@2.5 ng/mL; TLR5:flagellin@0.25 μg/mL; TLR7:polyU@4 μg/mL or R837@5 μg/mL; TLR9:CpG2216@1 μM) with or without presence of thymus HMGB1 (10 μg/mL) for 24 hr. Cytokines in the supernatant were measured by ELISA.
Inhibition of HMG1 Mediated Enhancement of TLR Signaling: Freshly isolated bone marrow cells were stimulated with TLR9 ligand CpG2216 (0.3 μM) and thymus HMGB1 (10 μg/mL) in the presence of different concentration of the anti-HMGB1 mAb E11 or control human IgG for 24 hr and IFN-a in the supernatant was measured by ELISA. CpG2216, HMGB1 and nonstimulatory DNA were used alone or in combination as controls for the assay.

[2] = target: T1, interaction of CpG and HMGB1 (Bos taurus, UniProt P10103); test: CpG ELISA, HMGB1 binding to CpG
T1 construct: from tissue; host or cells: bovine thymus
T1 sequence (P10103 2-215 limits assumed): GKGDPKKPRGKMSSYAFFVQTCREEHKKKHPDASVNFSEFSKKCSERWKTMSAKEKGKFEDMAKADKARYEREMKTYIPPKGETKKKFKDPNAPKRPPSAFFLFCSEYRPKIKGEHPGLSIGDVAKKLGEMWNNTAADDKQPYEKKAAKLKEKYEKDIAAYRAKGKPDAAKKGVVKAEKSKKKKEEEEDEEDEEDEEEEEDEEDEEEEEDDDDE
Procedure: CpG ELISA: Proteins or peptides were diluted in PBS to the concentration of 5 μg/ml and coated onto plates at 4° C. o/n. Plates were blocked with 4% dry milk in PBS. Biotin labeled CpG-A alone or in complex with HMGB1 were incubated in the plates at 37° C. for 1 hr. and detected with HRP labeled strep-avidin.

AM14 B cells = test: AM14 proliferation assay; assay type: cell-based, mouse; conditions: for inhibition of DNA immune complex (PL2-3) dependent proliferation of AM14 B cells: thymidine incorporation
Procedure: AM14 proliferation assay: Purified AM14 B cells were preincubated with RAGE-Fc or control human IgG1 for 30 min at 37° C., and stimulated with 0.1 μg/ml of PL2-3 for 24 h at 37° C. Cells were then pulsed with [^3H]thymidine for 6 h.

[3] = system: HMG1 stimulated cytokine gene expression in mouse macrophages; test: Taqman analysis of mouse macrophages (mMØ) stimulated with HMG1; assay type: cell-based; conditions: rHMG1
Procedure: Taqman Analysis of Mouse Macrophages (mMØ) Stimulated with HMG1: Mouse bone marrow was harvested by rinsing the femurs of normal C57BL/6 mice. The isolated bone marrow cells were then cultured in Dulbecco's modified Eagle's medium (DMEM) supplemented with 10% fetal bovine serum (FBS) and 50 ng/ml M-CSF for 24 h, nonadherent cells were collected and grown for 6 days in complete DMEM supplemented with 10% FBS and 50 ng/ml M-CSF in T-75 flasks (1×10^7 cells/15 ml/flask). On day 6, adherent cells were harvested and reseeded with 5 ng/ml MCSF in α-MEM containing 10% FBS in 96-well plates (1×10^5 cells/200 μl/well) overnight.
The culture medium was replaced with α-MEM and incubated for 2 hours before stimulation to starve cells. HMGB1 (recombinant CBP-HMGB1 fusion protein generated from E. coli at 10 μg/ml), mouse-RAGE-Fc or human-RAGE-Fc fusion protein were pre-mixed with various blocking reagents at 100 μg/ml in α-MEM for 20 min at RT, then 100 μl of the mixtures was added to the cells and incubated at 37° C. for 2 hours. The supernatant was then removed, and the RNA was extracted using Ambion's MagMAX™-96 Total RNA Isolation Kit. All of the recovered RNA were used in a reverse transcriptase (RT) reaction with SuperScript™ III and oligo(dT) primer (Invitrogen) for synthesis of cDNA. 1 μl or 2 μl of the resulting cDNA was used for real time quantitative PCR analysis (TaqMan) using ABI Prism 7700 or 7000.

B1: rHMG1: E. coli produced recombinant HMG1 (CBP fusion protein) (protein)
chain: MGKGDPKKPRGKMSSYAFFVQTCREEHKKKHPDASVNFSEFSKKCSERWKTMSAKEKGKFEDMAKADKARYEREMKTYIPPKGETKKKFKDPNAPKRPPSAFFLFCSEYRPKIKGEHPGLSIGDVAKKLGEMWNNTAADDKQPYEKKAAKLKEKYEKDIAAYRAKGKPDAAKKGVVKAEKSKKKKEEEEDEEDEEDEEEEEDEEDEDEEEDDDDE
modifications: left off: small tags and cut ends
induction of TNF-a mRNA levels (mouse macrophages; 2 hours): ~43 fold | increase in TNF-a protein levels (mouse macrophages; 24 hours, supernatant): ~10 fold

B2: A-box: synthesized HMGB1 A-box peptide (SEQ ID NO: 108), a known HMGB1 antagonist (peptide, listed as Homo sapiens)
chain: PRGKMSSYAFFVQTCREEHKKKHPDASVNFSEFSKKCSERWKTMSAKEKGKFEDMAKADKARYEREMKTYIPPKGET
inhibition of IFN-a release induced by CpG + thymus HMG1 [1]: inhibit IFN-a release | inhibition of IFN-a release induced by CpG + thymus HMG1 ([1]; listed as HMGB1 A-box): did not show inhibition in this assay | inhibition of the interaction of CpG and HMGB1 [2]: inhibit the interaction of CpG and HMGB1 | inhibition of the interaction of CpG and HMGB1 ([2]; listed as A box HMGB1): prevented the binding of HMGB1 to CpG DNA | effect on TLR2, TLR4 ligand induced proliferation or BCR mediated B cell activation (AM14 B cells): had no effect | inhibition of DNA immune complex (PL2-3) dependent proliferation of AM14 B cells (AM14 B cells; listed as A box antagonist): reduced proliferation | inhibition of DNA immune complex (PL2-3) dependent proliferation of AM14 B cells (AM14 B cells; listed as HMGB A box): markedly inhibited PL2-3-dependent proliferation of AM14 B cells

B3: mouse RAGE-Fc fusion protein: mouse RAGE-Fc fusion protein (protein)
chain: QNITARIGEPLVLSCKGAPKKPPQQLEWKLNTGRTEAWKVLSPQGGPWDSVARILPNGSLLLPATGIVDEGTFRCRATNRRGKEVKSNYRVRVYQIPGKPEIVDPASELTASVPNKVGTCVSEGSYPAGTLSWHLDGKLLIPDGKETLVKEETRRHPETGLFTLRSELTVIPTQGGTHPTFSCSFSLGLPRRRPLNTAPIQLRVREPGPPEGIQLLVEPEGGIVAPGGTVTLTCAISAQPPPQVHWIKDGAPLPLAPSPVLLLPEVGHEDEGTYSCVATHPSHGPQESPPVSIRVTETGDEGPAEGSVGESGLGTLALA
modifications: left off: a dimerising Fc or GST
inhibition of HMG1-induced IL-1β gene expression [3]: robustly inhibited | inhibition of HMG1-induced TNF-a gene expression [3]: robustly inhibited
